Measurements as given in US20230272054A1, “COMBINATION THERAPIES FOR THE TREATMENT AND PREVENTION OF BIOFILMS” (priority 2020, published 2023).
“Also recorded” adds a separate entry of the source.

Assays:
UPEC biofilms = test: Disruption of 24 h UPEC biofilms in vitro (CLSM, COMSTAT average thickness); conditions: 24 h UPEC biofilms, 200 nM protein, 16 h
HJ DNA [1] = test: Electrophoretic mobility shift assay (EMSA), binding to HJ DNA; conditions: 20 nM 6-carboxyfluorescein HJ DNA, 50-500 nM protein, non-denaturing PAGE
Experimental: Arrows indicate the HJ DNA-protein complex.
FIG. 11A provides that NEM-modified rHMGB1 was confirmed by triton acetic acid urea gel (TAU gel). […] Arrows indicate the HJ DNA-protein complex.
(§1) Electrophoretic mobility shift assay (EMSA): EMSA was performed as previously described (Devaraj et al., 2019).

Human neutrophils = test: NET formation by neutrophils incubated with HMGB1 isoforms (CLSM); type: cell-based; conditions: 200 nM protein, 3.5 h
Experimental: Neutrophils were fixed, then labeled as described above to visualize the NETs.
Visualization of NETs structure upon incubation of neutrophils with various isoforms of HMGB1: Human neutrophils were isolated from blood using the EASYSEP™ isolation kit (Stemcell Technologies Inc.). […] NETs were fixed in formalin, blocked with 10% normal goat serum (Life Technologies), and labeled with α-dsDNA monoclonal antibody (1 μg), and α-neutrophil elastase polyclonal antibody (1 μg) or naive rabbit and mouse isotype controls (1 μg) in 200 μl PBS for 16 h hours at 4° C. NETs were washed with PBS and incubated for 1 h with 1:200 dilution goat α-rabbit IgG conjugated to ALEXAFLUOR® 594, goat α-mouse IgG conjugated to ALEXAFLUOR® 488, and 1:500 dilution wheat germ agglutinin conjugated to ALEXAFLUOR® 350 (PMN membrane stain). NETs were imaged with a Zeiss LSM 800 confocal microscope (Carl Zeiss Inc.) and rendered with Zeiss Zen software.

B. cenocepacia biofilms = test: Disruption of 24 h B. cenocepacia biofilms in vitro (CLSM, COMSTAT average thickness); conditions: 24 h biofilms, 200 nM protein, 16 h
[2] = tested on: biofilms formed by UPEC, B. cenocepacia, NTHI, Enterobacter spp, S. aureus, K. pneumoniae, A. baumanii, P. aeruginosa, E. faecium; test: Disruption of 24 h bacterial biofilms in vitro by HMGB1 isoforms (LIVE/DEAD stain, CLSM, COMSTAT average thickness); conditions: 24 h biofilms of nine pathogens; 200 nM protein, 16 h (S. aureus 800 nM rHMGB1; E. faecium 800 nM, 1 h)
[3] = tested on: Enterobacter spp biofilms; test: Disruption of 24 h Enterobacter spp biofilms in vitro (CLSM, COMSTAT average thickness); conditions: 24 h biofilms, 200 nM protein, 16 h
K. pneumoniae biofilms = test: Disruption of 24 h K. pneumoniae biofilms in vitro (CLSM, COMSTAT average thickness); conditions: 24 h biofilms, 200 nM protein, 16 h
HJ DNA [4] = test: Stabilization of HJ DNA at RT or 55° C, non-denaturing PAGE; type: binding; conditions: 32P HJ DNA, 25-500 nM protein, RT, 10 min
Experimental: 5′ end-labeled ^32P HJ DNA was incubated with increasing concentrations (25-500 nM) of IHF (FIG. 8A), rHMGB1 (FIG. 8B) or RuvA (FIG. 8C) either at room temperature (RT) or at 55° C. for 10 min, then resolved on a 6% non-denaturing PAGE. Asterisk indicates melted oligos and arrows indicate DNA-protein complex. […] This outcome contrasts with that observed with both IHF and the prototypic HJ DNA binding protein, RuvA.
To test the hypothesis, HJ DNA was incubated with either HMGB1, the DNABII protein IHF, or the prototypic HJ DNA binding protein, RuvA at room temperature (RT) or 55° C. (melting temperature of HJ DNA) and resolved the complexes by non-denaturing polyacrylamide gel electrophoresis (PAGE). […] (FIG. 8) as indicated by the decrease in abundance of the shifted HJ DNA-HMGB1 complex (arrow) and the concomitant increase in the constituent melted oligos (asterisk).
as §1

## NEM-rHMGB1: rHMGB1 alkylated with N-ethylmaleimide (NEM)
UPEC biofilms
  biofilm average thickness / anti-biofilm activity, UPEC: lost its anti-biofilm activity
HJ DNA [1]
  binding to HJ DNA (EMSA): lost its ability to bind HJ DNA; also recorded: unable to bind to HJ DNA
Human neutrophils
  induction of NET formation by neutrophils: intertwined NETs specifically formed
Human neutrophils; listed as NEM-HMGB1
  induction of NET formation by neutrophils: induced neutrophils to form NETs

B1: nHMGB1: native HMGB1 purified from calf thymus, purchased from Chondrex Inc (protein, UniProt P10103 2-215, looked up)
High mobility group protein B1: GKGDPKKPRGKMSSYAFFVQTCREEHKKKHPDASVNFSEFSKKCSERWKTMSAKEKGKFEDMAKADKARYEREMKTYIPPKGETKKKFKDPNAPKRPPSAFFLFCSEYRPKIKGEHPGLSIGDVAKKLGEMWNNTAADDKQPYEKKAAKLKEKYEKDIAAYRAKGKPDAAKKGVVKAEKSKKKKEEEEDEEDEEDEEEEEDEEDEEEEEDDDDE
UPEC biofilms
  biofilm average thickness / anti-biofilm activity, UPEC: equivalent to that of rHMGB1
B. cenocepacia biofilms
  biofilm average thickness / anti-biofilm activity, B. cenocepacia: equivalent to that of rHMGB1
[2]
  biofilm average thickness compared to control: significantly disrupted bacterial biofilms

B2: Ox-rHMGB1: rHMGB1 oxidized with hydrogen peroxide (protein, UniProt P09429 1-215, looked up)
High mobility group protein B1: MGKGDPKKPRGKMSSYAFFVQTCREEHKKKHPDASVNFSEFSKKCSERWKTMSAKEKGKFEDMAKADKARYEREMKTYIPPKGETKKKFKDPNAPKRPPSAFFLFCSEYRPKIKGEHPGLSIGDVAKKLGEMWNNTAADDKQPYEKKAAKLKEKYEKDIAAYRAKGKPDAAKKGVVKAEKSKKKKEEEEDEEDEEDEEEEEDEEDEDEEEDDDDE
modifications: oxidized with hydrogen peroxide
UPEC biofilms
  biofilm average thickness / anti-biofilm activity, UPEC: lost its anti-biofilm effect as compared to rHMGB1
UPEC biofilms; listed as ox-rHMGB1
  biofilm average thickness / anti-biofilm activity, UPEC: significantly reduced upon oxidation

B3: Ac-rHMGB1: acetylated isoform of rHMGB1 (protein, UniProt P09429 1-215, looked up)
High mobility group protein B1: MGKGDPKKPRGKMSSYAFFVQTCREEHKKKHPDASVNFSEFSKKCSERWKTMSAKEKGKFEDMAKADKARYEREMKTYIPPKGETKKKFKDPNAPKRPPSAFFLFCSEYRPKIKGEHPGLSIGDVAKKLGEMWNNTAADDKQPYEKKAAKLKEKYEKDIAAYRAKGKPDAAKKGVVKAEKSKKKKEEEEDEEDEEDEEEEEDEEDEDEEEDDDDE
modifications: acetylated
[3]
  biofilm average thickness / anti-biofilm activity, Enterobacter spp: significantly disrupted biofilms
B. cenocepacia biofilms
  biofilm average thickness / anti-biofilm activity, B. cenocepacia: significantly disrupted biofilms
K. pneumoniae biofilms
  biofilm average thickness / anti-biofilm activity, K. pneumoniae: significantly disrupted biofilms

B4: P-rHMGB1: phosphorylated isoform of rHMGB1 (protein, UniProt P09429 1-215, looked up)
High mobility group protein B1: MGKGDPKKPRGKMSSYAFFVQTCREEHKKKHPDASVNFSEFSKKCSERWKTMSAKEKGKFEDMAKADKARYEREMKTYIPPKGETKKKFKDPNAPKRPPSAFFLFCSEYRPKIKGEHPGLSIGDVAKKLGEMWNNTAADDKQPYEKKAAKLKEKYEKDIAAYRAKGKPDAAKKGVVKAEKSKKKKEEEEDEEDEEDEEEEEDEEDEDEEEDDDDE
modifications: phosphorylated
[3]
  biofilm average thickness / anti-biofilm activity, Enterobacter spp: significantly disrupted biofilms
[3]; listed as PrHMGB1
  biofilm average thickness / anti-biofilm activity, Enterobacter spp: significantly disrupted
B. cenocepacia biofilms
  biofilm average thickness / anti-biofilm activity, B. cenocepacia: significantly disrupted biofilms
B. cenocepacia biofilms; listed as PrHMGB1
  biofilm average thickness / anti-biofilm activity, B. cenocepacia: significantly disrupted
K. pneumoniae biofilms
  biofilm average thickness / anti-biofilm activity, K. pneumoniae: significantly disrupted biofilms
K. pneumoniae biofilms; listed as PrHMGB1
  biofilm average thickness / anti-biofilm activity, K. pneumoniae: significantly disrupted

B5: IHF: the DNABII protein IHF (protein)
chain 1: MATITKLDIIEYLSDKYHLSKQDTKNVVENFLEEIRLSLESGQDVKLSGFGNFELRDKSSRPGRNPKTGDVVPVSARRVVTFKPGQKLRARVEKTK
chain 2: MTKSELMEKLSAKQPTLPAKEIENMVKGILEFISQSLENGDRVEVRGFGSFSLHHRQPRLGRNPKTGDSVNLSAKSVPYFKAGKELKARVDVQA
HJ DNA [4]
  HJ DNA-protein complex at room temperature (RT): bound to HJ DNA to form stable complexes at RT

B6: RuvA: the prototypic HJ DNA binding protein (protein, UniProt P0A809 1-203, looked up)
Holliday junction branch …: MIGRLRGIIIEKQPPLVLIEVGGVGYEVHMPMTCFYELPEAGQEAIVFTHFVVREDAQLLYGFNNKQERTLFKELIKTNGVGPKLALAILSGMSAQQFVNAVEREEVGALVKLPGIGKKTAERLIVEMKDRFKGLHGDLFTPAADLVLTSPASPATDDAEQEAVAALVALGYKPQEASRMVSKIARPDASSETLIREALRAAL
HJ DNA [4]
  HJ DNA-protein complex at room temperature (RT): bound to HJ DNA to form stable complexes at RT
